Measured values: paper PMC9482650, “Quantitative fragmentomics allow affinity mapping of interactomes” (Nature Communications, 2022)
Each block holds one binder with its values, some of them ahead of it.

Key:
Experiment in all cases: holdup assay
Design in all cases: key: below the threshold = too weak to quantify, mostly under pKd 3.1 to 4
Settings in all cases: plain residues with an end cap or a label only (N-terminal biotin on a linker: ado-ado)
Inadl_6, Q8NI35 = biological target: Inadl_6, Q8NI35
GORASP1, Q9BQQ3 = biological target: GORASP1, Q9BQQ3
PTPN3, P26045 = biological target: PTPN3, P26045
IL16_1, Q14005 = biological target: IL16_1, Q14005
DLG4_3, P78352 = biological target: DLG4_3, P78352
PCLO, Q9Y6V0 = biological target: T1, PCLO, Q9Y6V0
T1 sequence (Q9Y6V0 4491-4600, limits assumed, looked up): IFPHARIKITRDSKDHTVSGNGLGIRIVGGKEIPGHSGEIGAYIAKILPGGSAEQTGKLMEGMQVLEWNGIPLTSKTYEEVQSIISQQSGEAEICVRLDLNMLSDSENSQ

TJP3_3, O95049 = biological target: T2, TJP3_3, O95049
T2 sequence (O95049 375-456, limits assumed, looked up): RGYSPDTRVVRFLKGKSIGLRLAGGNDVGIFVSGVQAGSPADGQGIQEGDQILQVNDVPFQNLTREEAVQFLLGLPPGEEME

NOS1, P29475 = biological target: NOS1, P29475
DFNB31_2, Q9P202 = biological target: T3, DFNB31_2, Q9P202
T3 sequence (Q9P202 274-371, limits assumed, looked up): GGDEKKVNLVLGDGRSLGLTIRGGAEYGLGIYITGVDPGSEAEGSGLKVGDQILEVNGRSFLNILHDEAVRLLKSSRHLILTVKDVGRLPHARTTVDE

NHERF3_3, Q5T2W1 = biological target: T4, NHERF3_3, Q5T2W1
T4 sequence (Q5T2W1 238-333, limits assumed, looked up): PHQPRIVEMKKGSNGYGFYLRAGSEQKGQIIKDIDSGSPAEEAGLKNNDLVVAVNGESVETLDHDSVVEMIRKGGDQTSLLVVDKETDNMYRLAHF

MPP2, Q14168 = biological target: T5, MPP2, Q14168
T5 sequence (Q14168 180-250, limits assumed, looked up): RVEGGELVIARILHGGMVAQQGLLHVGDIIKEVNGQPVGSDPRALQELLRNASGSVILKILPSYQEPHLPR

DLG1_3, Q12959 = biological target: DLG1_3, Q12959
MAGI2_2, Q86UL8 = biological target: MAGI2_2, Q86UL8
DLG3_3, Q92796 = biological target: T6, DLG3_3, Q92796
T6 sequence (Q92796 374-475, limits assumed, looked up): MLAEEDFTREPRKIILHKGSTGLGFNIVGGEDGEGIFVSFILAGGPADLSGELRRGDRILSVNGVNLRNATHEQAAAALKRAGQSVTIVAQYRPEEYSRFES

FRMPD2_2, Q68DX3 = biological target: FRMPD2_2, Q68DX3
TJP1_3, Q07157 = biological target: TJP1_3, Q07157
NHERF4_1, Q86UT5-2 = biological target: NHERF4_1, Q86UT5-2
SHANK1, Q9Y566 = biological target: T7, SHANK1, Q9Y566
T7 sequence (Q9Y566 658-767, limits assumed, looked up): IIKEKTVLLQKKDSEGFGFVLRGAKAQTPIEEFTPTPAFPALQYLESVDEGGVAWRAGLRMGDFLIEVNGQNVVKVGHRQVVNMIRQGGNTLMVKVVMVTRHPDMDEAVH

GRID2IP_1, A4D2P6 = biological target: GRID2IP_1, A4D2P6
MAGI2_6, Q86UL8 = biological target: MAGI2_6, Q86UL8
LNX2_2, Q8N448 = biological target: T8, LNX2_2, Q8N448
T8 sequence (Q8N448 334-432, limits assumed, looked up): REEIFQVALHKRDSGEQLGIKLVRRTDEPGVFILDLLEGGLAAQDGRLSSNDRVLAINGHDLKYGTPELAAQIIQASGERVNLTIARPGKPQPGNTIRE

TIAM2, Q8IVF5 = biological target: T9, TIAM2, Q8IVF5
T9 sequence (Q8IVF5 885-986, limits assumed, looked up): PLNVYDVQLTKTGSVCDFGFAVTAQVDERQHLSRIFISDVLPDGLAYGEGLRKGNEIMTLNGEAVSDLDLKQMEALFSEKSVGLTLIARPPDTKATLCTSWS

Inadl_8, Q8NI35 = biological target: Inadl_8, Q8NI35
PICK1, Q9NRD5 = biological target: PICK1, Q9NRD5
GRIP1_5, Q9Y3R0 = biological target: T10, GRIP1_5, Q9Y3R0
T10 sequence (Q9Y3R0 568-668, limits assumed, looked up): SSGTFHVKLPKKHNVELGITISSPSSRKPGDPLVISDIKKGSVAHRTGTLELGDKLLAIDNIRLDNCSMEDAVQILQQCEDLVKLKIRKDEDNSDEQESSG

DLG4_1, P78352 = biological target: DLG4_1, P78352
NHERF3_1, Q5T2W1 = biological target: T11, NHERF3_1, Q5T2W1
T11 sequence (Q5T2W1 4-100, limits assumed, looked up): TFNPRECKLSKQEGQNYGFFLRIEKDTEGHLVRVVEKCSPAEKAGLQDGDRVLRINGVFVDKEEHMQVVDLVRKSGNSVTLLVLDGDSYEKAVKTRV

Sequence of PTPN3, P26045 (P26045 505-587): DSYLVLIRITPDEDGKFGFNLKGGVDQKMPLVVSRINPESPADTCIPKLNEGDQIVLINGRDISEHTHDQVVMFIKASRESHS
Sequence of GORASP1, Q9BQQ3 (Q9BQQ3 1-208): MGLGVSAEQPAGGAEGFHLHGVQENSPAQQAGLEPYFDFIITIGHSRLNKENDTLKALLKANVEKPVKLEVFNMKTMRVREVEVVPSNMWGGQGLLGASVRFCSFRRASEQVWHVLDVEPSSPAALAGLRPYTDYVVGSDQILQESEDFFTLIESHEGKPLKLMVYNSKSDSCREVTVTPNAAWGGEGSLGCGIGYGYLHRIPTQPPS
Sequence of DLG1_3, Q12959 (Q12959 457-571): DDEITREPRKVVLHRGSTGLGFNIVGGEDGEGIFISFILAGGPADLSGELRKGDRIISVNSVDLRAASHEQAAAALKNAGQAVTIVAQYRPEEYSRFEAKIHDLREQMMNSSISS
Sequence of GRID2IP_1, A4D2P6 (A4D2P6 1-87): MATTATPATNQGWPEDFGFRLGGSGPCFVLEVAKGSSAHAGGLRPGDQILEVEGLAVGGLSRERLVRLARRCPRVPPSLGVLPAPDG
Sequence of NOS1, P29475 (P29475 9-101): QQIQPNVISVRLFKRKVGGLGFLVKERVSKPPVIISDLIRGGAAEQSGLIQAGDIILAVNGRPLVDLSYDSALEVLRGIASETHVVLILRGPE
Sequence of FRMPD2_2, Q68DX3 (Q68DX3 944-1038): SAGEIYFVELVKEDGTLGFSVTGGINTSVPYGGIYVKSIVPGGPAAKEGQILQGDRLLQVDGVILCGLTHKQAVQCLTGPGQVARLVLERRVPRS
Sequence of IL16_1, Q14005 (Q14005 210-306): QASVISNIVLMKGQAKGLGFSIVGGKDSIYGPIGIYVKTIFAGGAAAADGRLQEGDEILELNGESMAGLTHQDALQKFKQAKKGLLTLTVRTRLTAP
Sequence of MAGI2_6, Q86UL8 (Q86UL8 1141-1229): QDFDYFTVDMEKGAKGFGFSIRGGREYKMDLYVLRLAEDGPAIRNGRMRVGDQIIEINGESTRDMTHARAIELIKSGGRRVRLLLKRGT
Sequence of TJP1_3, Q07157 (Q07157 416-512): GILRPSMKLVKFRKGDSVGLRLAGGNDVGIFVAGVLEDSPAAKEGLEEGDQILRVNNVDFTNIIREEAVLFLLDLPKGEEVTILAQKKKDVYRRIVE
Sequence of DLG4_3, P78352 (P78352 306-403): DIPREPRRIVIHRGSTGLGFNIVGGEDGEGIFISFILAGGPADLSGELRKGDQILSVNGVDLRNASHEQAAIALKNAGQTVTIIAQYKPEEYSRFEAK
Sequence of NHERF4_1, Q86UT5-2 (Q86UT5 other isoform, or with tags, fused parts or gaps): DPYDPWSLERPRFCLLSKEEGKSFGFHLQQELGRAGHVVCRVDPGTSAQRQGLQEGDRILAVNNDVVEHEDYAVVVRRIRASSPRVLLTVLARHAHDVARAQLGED
Sequence of Inadl_6, Q8NI35 (Q8NI35 1058-1167): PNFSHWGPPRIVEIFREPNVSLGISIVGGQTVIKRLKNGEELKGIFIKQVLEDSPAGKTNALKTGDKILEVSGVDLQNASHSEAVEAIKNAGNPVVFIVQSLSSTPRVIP
Sequence of PICK1, Q9NRD5 (Q9NRD5 17-115): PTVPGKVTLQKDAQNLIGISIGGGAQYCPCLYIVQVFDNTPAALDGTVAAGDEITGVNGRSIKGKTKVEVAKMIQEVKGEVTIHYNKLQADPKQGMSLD
Sequence of MAGI2_2, Q86UL8 (Q86UL8 410-522): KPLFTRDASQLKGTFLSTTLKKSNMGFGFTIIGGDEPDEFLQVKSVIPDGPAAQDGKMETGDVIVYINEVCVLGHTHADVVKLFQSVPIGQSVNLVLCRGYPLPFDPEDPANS
Sequence of Inadl_8, Q8NI35 (Q8NI35 1425-1530): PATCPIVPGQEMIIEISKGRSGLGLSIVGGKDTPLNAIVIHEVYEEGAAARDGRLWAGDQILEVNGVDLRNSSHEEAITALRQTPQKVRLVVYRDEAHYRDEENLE
Sequence of DLG4_1, P78352 (P78352 62-152): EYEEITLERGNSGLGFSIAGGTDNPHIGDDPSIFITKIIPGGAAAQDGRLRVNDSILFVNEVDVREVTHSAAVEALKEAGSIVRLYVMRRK

B1: ABCA7, Q8IZY2 (peptide)
chain: DDPSTAETVL
pKd (Inadl_6, Q8NI35): 3.98
pKd (GORASP1, Q9BQQ3): below the threshold
pKd (PTPN3, P26045): 4.83
pKd (IL16_1, Q14005): below the threshold
pKd (DLG4_3, P78352): below the threshold
pKd (PCLO, Q9Y6V0): below the threshold
pKd (TJP3_3, O95049): below the threshold
pKd (NOS1, P29475): 3.52
pKd (DFNB31_2, Q9P202): below the threshold
pKd (NHERF3_3, Q5T2W1): below the threshold
pKd (MPP2, Q14168): below the threshold
pKd (DLG1_3, Q12959): below the threshold
pKd (MAGI2_2, Q86UL8): below the threshold
pKd (DLG3_3, Q92796): below the threshold
pKd (FRMPD2_2, Q68DX3): below the threshold
pKd (TJP1_3, Q07157): below the threshold
pKd (NHERF4_1, Q86UT5-2): 3.86
pKd (SHANK1, Q9Y566): 4.74
pKd (GRID2IP_1, A4D2P6): below the threshold
pKd (MAGI2_6, Q86UL8): 3.83
pKd (LNX2_2, Q8N448): below the threshold
pKd (TIAM2, Q8IVF5): 3.99
pKd (Inadl_8, Q8NI35): below the threshold
pKd (PICK1, Q9NRD5): below the threshold
pKd (GRIP1_5, Q9Y3R0): below the threshold
pKd (DLG4_1, P78352): below the threshold
pKd (NHERF3_1, Q5T2W1): 4.64

B4: BPIFA2, Q96DR5 (peptide)
chain: QHKTQLQTLI
pKd (Inadl_6, Q8NI35): 3.56
pKd (GORASP1, Q9BQQ3): 3.73
pKd (PTPN3, P26045): 3.99
pKd (IL16_1, Q14005): below the threshold
pKd (DLG4_3, P78352): 3.72
pKd (PCLO, Q9Y6V0): below the threshold
pKd (TJP3_3, O95049): below the threshold
pKd (NOS1, P29475): 4.2
pKd (DFNB31_2, Q9P202): below the threshold
pKd (NHERF3_3, Q5T2W1): below the threshold
pKd (MPP2, Q14168): below the threshold
pKd (DLG1_3, Q12959): 3.68
pKd (MAGI2_2, Q86UL8): 4.43
pKd (DLG3_3, Q92796): below the threshold
pKd (FRMPD2_2, Q68DX3): below the threshold
pKd (TJP1_3, Q07157): below the threshold
pKd (NHERF4_1, Q86UT5-2): 3.85
pKd (SHANK1, Q9Y566): 4.02
pKd (GRID2IP_1, A4D2P6): below the threshold
pKd (MAGI2_6, Q86UL8): below the threshold
pKd (LNX2_2, Q8N448): 4
pKd (TIAM2, Q8IVF5): below the threshold
pKd (Inadl_8, Q8NI35): 3.54
pKd (PICK1, Q9NRD5): below the threshold
pKd (GRIP1_5, Q9Y3R0): below the threshold
pKd (DLG4_1, P78352): 4.38
pKd (NHERF3_1, Q5T2W1): 5.29

B5: ATP2A2, P16615;P16615-3 (peptide)
chain: YLEPVLSSEL
pKd (Inadl_6, Q8NI35): below the threshold
pKd (GORASP1, Q9BQQ3): below the threshold
pKd (PTPN3, P26045): 4.93
pKd (IL16_1, Q14005): below the threshold
pKd (DLG4_3, P78352): below the threshold
pKd (PCLO, Q9Y6V0): below the threshold
pKd (TJP3_3, O95049): below the threshold
pKd (NOS1, P29475): below the threshold
pKd (DFNB31_2, Q9P202): below the threshold
pKd (NHERF3_3, Q5T2W1): below the threshold
pKd (MPP2, Q14168): below the threshold
pKd (DLG1_3, Q12959): below the threshold
pKd (MAGI2_2, Q86UL8): below the threshold
pKd (DLG3_3, Q92796): below the threshold
pKd (FRMPD2_2, Q68DX3): below the threshold
pKd (TJP1_3, Q07157): below the threshold
pKd (NHERF4_1, Q86UT5-2): 4.39
pKd (SHANK1, Q9Y566): 4.67
pKd (GRID2IP_1, A4D2P6): below the threshold
pKd (MAGI2_6, Q86UL8): 3.91
pKd (LNX2_2, Q8N448): below the threshold
pKd (TIAM2, Q8IVF5): 3.98
pKd (Inadl_8, Q8NI35): below the threshold
pKd (PICK1, Q9NRD5): below the threshold
pKd (GRIP1_5, Q9Y3R0): below the threshold
pKd (DLG4_1, P78352): below the threshold
pKd (NHERF3_1, Q5T2W1): 5.47

Results, then the binder that gave them:

pKd (Inadl_6, Q8NI35): below the threshold
pKd (GORASP1, Q9BQQ3): 4.15
pKd (PTPN3, P26045): 4.13
pKd (IL16_1, Q14005): below the threshold
pKd (DLG4_3, P78352): 3.56
pKd (PCLO, Q9Y6V0): below the threshold
pKd (TJP3_3, O95049): below the threshold
pKd (NOS1, P29475): below the threshold
pKd (DFNB31_2, Q9P202): below the threshold
pKd (NHERF3_3, Q5T2W1): 3.48
pKd (MPP2, Q14168): below the threshold
pKd (DLG1_3, Q12959): below the threshold
pKd (MAGI2_2, Q86UL8): 3.65
pKd (DLG3_3, Q92796): below the threshold
pKd (FRMPD2_2, Q68DX3): below the threshold
pKd (TJP1_3, Q07157): below the threshold
pKd (NHERF4_1, Q86UT5-2): 3.67
pKd (SHANK1, Q9Y566): below the threshold
pKd (GRID2IP_1, A4D2P6): below the threshold
pKd (MAGI2_6, Q86UL8): below the threshold
pKd (LNX2_2, Q8N448): 5.42
pKd (TIAM2, Q8IVF5): 4.22
pKd (Inadl_8, Q8NI35): below the threshold
pKd (PICK1, Q9NRD5): below the threshold
pKd (GRIP1_5, Q9Y3R0): below the threshold
pKd (DLG4_1, P78352): below the threshold
pKd (NHERF3_1, Q5T2W1): below the threshold
B2: TRAF7, Q6Q0C0 (peptide)
chain: VDSTVKVWTC

pKd (Inadl_6, Q8NI35): below the threshold
pKd (GORASP1, Q9BQQ3): below the threshold
pKd (PTPN3, P26045): 3.97
pKd (IL16_1, Q14005): below the threshold
pKd (DLG4_3, P78352): below the threshold
pKd (PCLO, Q9Y6V0): below the threshold
pKd (TJP3_3, O95049): below the threshold
pKd (NOS1, P29475): below the threshold
pKd (DFNB31_2, Q9P202): below the threshold
pKd (NHERF3_3, Q5T2W1): below the threshold
pKd (MPP2, Q14168): below the threshold
pKd (DLG1_3, Q12959): below the threshold
pKd (MAGI2_2, Q86UL8): below the threshold
pKd (DLG3_3, Q92796): below the threshold
pKd (FRMPD2_2, Q68DX3): below the threshold
pKd (TJP1_3, Q07157): below the threshold
pKd (NHERF4_1, Q86UT5-2): below the threshold
pKd (SHANK1, Q9Y566): below the threshold
pKd (GRID2IP_1, A4D2P6): below the threshold
pKd (MAGI2_6, Q86UL8): below the threshold
pKd (LNX2_2, Q8N448): below the threshold
pKd (TIAM2, Q8IVF5): 3.48
pKd (Inadl_8, Q8NI35): below the threshold
pKd (PICK1, Q9NRD5): 4.08
pKd (GRIP1_5, Q9Y3R0): below the threshold
pKd (DLG4_1, P78352): below the threshold
pKd (NHERF3_1, Q5T2W1): below the threshold
B3: CTNNA1, P35221 (peptide)
chain: LSEFKAMDSI
